Assay results from the supplement of paper PMC5998384.

Legend:
[1] = system: HeLa Kyoto; experiment: melting temperature (median over replicates), in situ; higher = more thermally stable
[2] = system: HeLa Kyoto; experiment: thermal stability score vs G1/S (z-score of summed log2 fold changes over temperatures); higher = more thermally stable than in G1/S
[3] = system: HeLa Kyoto; experiment: solubility in G1/S (NP-40 vs SDS abundance) (log2 ratio); higher = more soluble; settings: cell cycle stage: G1/S
[4] = system: HeLa Kyoto; experiment: solubility change mitosis vs G1/S (difference of NP-40 vs SDS log2 ratios) (log2 ratio difference); higher = more soluble in mitosis
[5] = cell cycle stage: early G1 (4.5 h after nocodazole release)
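Throughout, for melting temperature (median over replicates), in situ: HeLa Kyoto cells synchronized by double thymidine or nocodazole block, proteins quantified by TMT10plex mass spectrometry, three independent biological replicates.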
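Throughout, for solubility change mitosis vs G1/S (difference of NP-40 vs SDS log2 ratios): synchronized HeLa Kyoto cells (double thymidine block for G1/S, nocodazole release for mitosis), protein amounts in NP-40 versus SDS lysates quantified by mass spectrometry, three biological replicates.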
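Throughout, for solubility in G1/S (NP-40 vs SDS abundance): HeLa Kyoto cells arrested at G1/S by double thymidine block, proteins quantified by TMT10plex mass spectrometry in mild NP-40 versus SDS extracts, three biological replicates.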
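Throughout, for thermal stability score vs G1/S (z-score of summed log2 fold changes over temperatures): synchronized HeLa Kyoto cells, proteins quantified by TMT10plex mass spectrometry, three biological replicates, mitosis taken 0.5 h after nocodazole release, G1/S directly after double thymidine block.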

Row | Substance | melting temperature ([1]; cell cycle stage: G1/S) | melting temperature ([1]; cell cycle stage: mitosis) | thermal stability score [2, 5] | thermal stability score ([2]; cell cycle stage: mitosis) | solubility in G1/S (log2) [3] | solubility change mitosis (log2) [4]
1 | MATPAGLERWVQDELHSVLGLSERHVAQFLIGTAQRCTSAEEFVQRLRDTDTLDLSGPARDFALRLWNKVPRKAVVEKPARAAEREARALLEKNRSYRLLEDSEESSEETVSRAGSSLQKKRKKRKHLRKKREEEEEEEASEKGKKKTGGSKQQTEKPESEDEWERTERERLQDLEERDAFAERVRQRDKDRTRNVLERSDKKAYEEAQKRLKMAEEDRKAMVPELRKKSRREYLAKREREKLEDLEAELADEEFLFGDVELSRHERQELKYKRRVRDLAREYRAAGEQEKLEATNRYHMPKETRGQPARAVDLVEEESGAPGEEQRRWEEARLGAASLKFGARDAASQEPKYQLVLEEEETIEFVRATQLQGDEEPSAPPTSTQAQQKESIQAVRRSLPVFPFREELLAAIANHQVLIIEGETGSGKTTQIPQYLFEEGYTNKGMKIACTQPRRVAAMSVAARVAREMGVKLGNEVGYSIRFEDCTSERTVLRYMTDGMLLREFLSEPDLASYSVVMVDEAHERTLHTDILFGLIKDVARFRPELKVLVASATMDTARFSTFFDDAPVFRIPGRRFPVDIFYTKAPEADYLEACVVSVLQIHVTQPPGDILVFLTGQEEIEAACEMLQDRCRRLGSKIRELLVLPIYANLPSDMQARIFQPTPPGARKVVVATNIAETSLTIEGIIYVLDPGFCKQKSYNPRTGMESLTVTPCSKASANQRAGRAGRVAAGKCFRLYTAWAYQHELEETTVPEIQRTSLGNVVLLLKSLGIHDLMHFDFLDPPPYETLLLALEQLYALGALNHLGELTTSGRKMAELPVDPMLSKMILASEKYSCSEEILTVAAMLSVNNSIFYRPKDKVVHADNARVNFFLPGGDHLVLLNVYTQWAESGYSSQWCYENFVQFRSMRRARDVREQLEGLLERVEVGLSSCQGDYIRVRKAITAGYFYHTARLTRSGYRTVKQQQTVFIHPNSSLFEQQPRWLLYHELVLTTKEFMRQVLEIESSWLLEVAPHYYKAKELEDPHAKKMPKKIGKTREELG [DHX16] | 49.9 °C | 50.8 °C | 1.68 | 2.22 | -0.394 | 0.00704
2 | MASSNTVLMRLVASAYSIAQKAGMIVRRVIAEGDLGIVEKTCATDLQTKADRLAQMSICSSLARKFPKLTIIGEEDLPSEEVDQELIEDSQWEEILKQPCPSQYSAIKEEDLVVWVDPLDGTKEYTEGLLDNVTVLIGIAYEGKAIAGVINQPYYNYEAGPDAVLGRTIWGVLGLGAFGFQLKEVPAGKHIITTTRSHSNKLVTDCVAAMNPDAVLRVGGAGNKIIQLIEGKASAYVFASPGCKKWDTCAPEVILHAVGGKLTDIHGNVLQYHKDVKHMNSAGVLATLRNYDYYASRVPESIKNALVP [BPNT1] | 57.5 °C | 57.9 °C | -0.366 | -1.21 | 0.211 | -0.0215
3 | MATPSAAFEALMNGVTSWDVPEDAVPCELLLIGEASFPVMVNDMGQVLIAASSYGRGRLVVVSHEDYLVEAQLTPFLLNAVGWLCSSPGAPIGVHPSLAPLAKILEGSGVDAKVEPEVKDSLGVYCIDAYNETMTEKLVKFMKCGGGLLIGGQAWDWANQGEDERVLFTFPGNLVTSVAGIYFTDNKGDTSFFKVSKKMPKIPVLVSCEDDLSDDREELLHGISELDISNSDCFPSQLLVHGALAFPLGLDSYHGCVIAAARYGRGRVVVTGHKVLFTVGKLGPFLLNAVRWLDGGRRGKVVVQTELRTLSGLLAVGGIDTSIEPNLTSDASVYCFEPVSEVGVKELQEFVAEGGGLFVGAQAWWWAFKNPGVSPLARFPGNLLLNPFGISITSQSLNPGPFRTPKAGIRTYHFRSTLAEFQVIMGRKRGNVEKGWLAKLGPDGAAFLQIPAEEIPAYMSVHRLLRKLLSRYRLPVATRENPVINDCCRGAMLSLATGLAHSGSDLSLLVPEIEDMYSSPYLRPSESPITVEVNCTNPGTRYCWMSTGLYIPGRQIIEVSLPEAAASADLKIQIGCHTDDLTRASKLFRGPLVINRCCLDKPTKSITCLWGGLLYIIVPQNSKLGSVPVTVKGAVHAPYYKLGETTLEEWKRRIQENPGPWGELATDNIILTVPTANLRTLENPEPLLRLWDEVMQAVARLGAEPFPLRLPQRIVADVQISVGWMHAGYPIMCHLESVQELINEKLIRTKGLWGPVHELGRNQQRQEWEFPPHTTEATCNLWCVYVHETVLGIPRSRANIALWPPVREKRVRIYLSKGPNVKNWNAWTALETYLQLQEAFGWEPFIRLFTEYRNQTNLPTENVDKMNLWVKMFSHQVQKNLAPFFEAWAWPIQKEVATSLAYLPEWKENIMKLYLLTQMPH [TCAF1] | 49.9 °C | 49.8 °C | 0.502 | 2.06 | -0.143 | -0.185
4 | GTF3C1 | 47.5 °C | 49.4 °C | 1.22 | 3.47 | -0.378 | -0.00776
5 | MTPLCPRPALCYHFLTSLLRSAMQNARGARQRAEAAVLSGPGPPLGRAAQHGIPRPLSSAGRLSQGCRGASTVGAAGWKGELPKAGGSPAPGPETPAISPSKRARPAEVGGMQLRFARLSEHATAPTRGSARAAGYDLYSAYDYTIPPMEKAVVKTDIQIALPSGCYGRVAPRSGLAAKHFIDVGAGVIDEDYRGNVGVVLFNFGKEKFEVKKGDRIAQLICERIFYPEIEEVQALDDTERGSGGFGSTGKN [DUT] | 53.2 °C | 53.5 °C | 0.243 | -0.204 | 0.483 | -0.0703
6 | MATYLEFIQQNEERDGVRFSWNVWPSSRLEATRMVVPLACLLTPLKERPDLPPVQYEPVLCSRPTCKAVLNPLCQVDYRAKLWACNFCFQRNQFPPAYGGISEVNQPAELMPQFSTIEYVIQRGAQSPLIFLYVVDTCLEEDDLQALKESLQMSLSLLPPDALVGLITFGRMVQVHELSCEGISKSYVFRGTKDLTAKQIQDMLGLTKPAMPMQQARPAQPQEHPFASSRFLQPVHKIDMNLTDLLGELQRDPWPVTQGKRPLRSTGVALSIAVGLLEGTFPNTGARIMLFTGGPPTQGPGMVVGDELKIPIRSWHDIEKDNARFMKKATKHYEMLANRTAANGHCIDIYACALDQTGLLEMKCCANLTGGYMVMGDSFNTSLFKQTFQRIFTKDFNGDFRMAFGATLDVKTSRELKIAGAIGPCVSLNVKGPCVSENELGVGGTSQWKICGLDPTSTLGIYFEVVNQHNTPIPQGGRGAIQFVTHYQHSSTQRRIRVTTIARNWADVQSQLRHIEAAFDQEAAAVLMARLGVFRAESEEGPDVLRWLDRQLIRLCQKFGQYNKEDPTSFRLSDSFSLYPQFMFHLRRSPFLQVFNNSPDESSYYRHHFARQDLTQSLIMIQPILYSYSFHGPPEPVLLDSSSILADRILLMDTFFQIVIYLGETIAQWRKAGYQDMPEYENFKHLLQAPLDDAQEILQARFPMPRYINTEHGGSQARFLLSKVNPSQTHNNLYAWGQETGAPILTDDVSLQVFMDHLKKLAVSSAC [SEC23B] | 50.4 °C | 50.9 °C | 0.832 | 0.395 | 0.0443 | -0.175
7 | UGGT1 | 54.2 °C | 55 °C | 3.04 | 4.09 | -0.0908 | -0.156
8 | MAECGASGSGSSGDSLDKSITLPPDEIFRNLENAKRFAIDIGGSLTKLAYYSTVQHKVAKVRSFDHSGKDTEREHEPPYEISVQEEITARLHFIKFENTYIEACLDFIKDHLVNTETKVIQATGGGAYKFKDLIEEKLRLKVDKEDVMTCLIKGCNFVLKNIPHEAFVYQKDSDPEFRFQTNHPHIFPYLLVNIGSGVSIVKVETEDRFEWVGGSSIGGGTFWGLGALLTKTKKFDELLHLASRGQHSNVDMLVRDVYGGAHQTLGLSGNLIASSFGKSATADQEFSKEDMAKSLLHMISNDIGQLACLHARLHSLDRVYFGGFFIRGHPVTMRTITYSINFFSKGEVQALFLRHEGYLGAIGAFLKGAEQDNPNQYSWGENYAGSSGLMSASPELGPAQRARSGTFDLLEMDRLERPLVDLPLLLDPPSYVPDTVDLTDDALARKYWLTCFEEALDGVVKRAVASQPDSVDAAERAEKFRQKYWNKLQTLRQQPFAYGTLTVRSLLDTREHCLNEFNFPDPYSKVKQRENGVALRCFPGVVRSLDALGWEERQLALVKGLLAGNVFDWGAKAVSAVLESDPYFGFEEAKRKLQERPWLVDSYSEWLQRLKGPPHKCALIFADNSGIDIILGVFPFVRELLLRGTEVILACNSGPALNDVTHSESLIVAERIAGMDPVVHSALQEERLLLVQTGSSSPCLDLSRLDKGLAALVRERGADLVVIEGMGRAVHTNYHAALRCESLKLAVIKNAWLAERLGGRLFSVIFKYEVPAE [PANK4] | 52 °C | 51.7 °C | 0.0566 | -0.284 | -0.125 | -0.0425
9 | MSSDASQGVITTPPPPSMPHKERYFDRINENDPEYIRERNMSPDLRQDFNMMEQRKRVTQILQSPAFREDLECLIQEQMKKGHNPTGLLALQQIADYIMANSFSGFSSPPLSLGMVTPINDLPGADTSSYVKGEKLTRCKLASLYRLVDLFGWAHLANTYISVRISKEQDHIIIIPRGLSFSEATASNLVKVNIIGEVVDQGSTNLKIDHTGFSPHAAIYSTRPDVKCVIHIHTLATAAVSSMKCGILPISQESLLLGDVAYYDYQGSLEEQEERIQLQKVLGPSCKVLVLRNHGVVALGETLEEAFHYIFNVQLACEIQVQALAGAGGVDNLHVLDFQKYKAFTYTVAASGGGGVNMGSHQKWKVGEIEFEGLMRTLDNLGYRTGYAYRHPLIREKPRHKSDVEIPATVTAFSFEDDTVPLSPLKYMAQRQQREKTRWLNSPNTYMKVNVPEESRNGETSPRTKITWMKAEDSSKVSGGTPIKIEDPNQFVPLNTNPNEVLEKRNKIREQNRYDLKTAGPQSQLLAGIVVDKPPSTMQFEDDDHGPPAPPNPFSHLTEGELEEYKRTIERKQQGLEDAEQELLSDDASSVSQIQSQTQSPQNVPEKLEENHELFSKSFISMEVPVMVVNGKDDMHDVEDELAKRVSRLSTSTTIENIEITIKSPEKIEEVLSPEGSPSKSPSKKKKKFRTPSFLKKNKKKEKVEA [ADD3] | 55.9 °C | 55.5 °C | -4.93 | -3.64 | -0.181 | 0.481
10 | MVLGPEQKMSDDSVSGDHGESASLGNINPAYSNPSLSQSPGDSEEYFATYFNEKISIPEEEYSCFSFRKLWAFTGPGFLMSIAYLDPGNIESDLQSGAVAGFKLLWILLLATLVGLLLQRLAARLGVVTGLHLAEVCHRQYPKVPRVILWLMVELAIIGSDMQEVIGSAIAINLLSVGRIPLWGGVLITIADTFVFLFLDKYGLRKLEAFFGFLITIMALTFGYEYVTVKPSQSQVLKGMFVPSCSGCRTPQIEQAVGIVGAVIMPHNMYLHSALVKSRQVNRNNKQEVREANKYFFIESCIALFVSFIINVFVVSVFAEAFFGKTNEQVVEVCTNTSSPHAGLFPKDNSTLAVDIYKGGVVLGCYFGPAALYIWAVGILAAGQSSTMTGTYSGQFVMEGFLNLKWSRFARVVLTRSIAIIPTLLVAVFQDVEHLTGMNDFLNVLQSLQLPFALIPILTFTSLRPVMSDFANGLGWRIAGGILVLIICSINMYFVVVYVRDLGHVALYVVAAVVSVAYLGFVFYLGWQCLIALGMSFLDCGHTCHLGLTAQPELYLLNTMDADSLVSR [SLC11A2] | 58.8 °C | 57.6 °C | 2.43 | -0.114 | -0.142 | -0.211
